Source: US6673587B1, “Histone deacetylase, and uses therefor” (The Salk Institute for Biological Studies, priority 2000, dated 2004)

Target: T1, GAL DBD-SMRT (RD III+IV), pGBT9-hSMRT (1060-1831) (human, UniProt P04386 1-147; Q9Y618 1060-1831)
T1 construct: domain: GAL DBD;range 1060-1831; Bait of the yeast two-hybrid screen and assays in strain Y190; also called SMRT repression domains III and IV; SMRT RD III and IV
Assay: yeast two-hybrid, growth on -Trp-Leu-His+40 mM 3-AT plates
Procedure: (Verdel and Khochbin, 1999, supra)). A series of AD-HDAC constructs were generated for interaction assays in yeast. Transformants harboring both plasmids were picked and patched onto nutrient selection plates. Only cells that contain plasmids carrying an interacting partner are able to activate reporter gene HIS3 and therefore are viable in the selection plate -Trp-Leu-His+40 mM 3-AT. […] After three days, two isolated colonies were picked, resuspended in water, and […] were dropped on both -Trp-Leu and -Trp-Leu-His+40 mM 3-AT plates. Pictures were taken after three days.

| binding result | Binder |
| --- | --- |
| no binding | AD-HDAC1 (deacetylase domain of HDAC1, GAL AD fusion) (enzyme, UniProt Q13547 9-321, looked up, not shown: large carriers, domain: deacetylase domain) RKVCYYYDGDVGNYYYGQGHPMKPHRIRMTHNLLLNYGLYRKMEIYRPHKANAEEMTKYHSDDYIKFLRSIRPDNMSEYSKQMQRFNVGEDCPVFDGLFEFCQLSTGGSVASAVKLNKQQTDIAVNWAGGLHHAKKSEASGFCYVNDIVLAILELLKYHQRVLYIDIDIHHGDGVEEAFYTTDRVMTVSFHKYGEYFPGTGDLRDIGAGKGKYYAVNYPLRDGIDDESYEAIFKPVMSKVMEMFQPSAVVLQCGSDSLSGDRLGCFNLTIKGHAKCVEFVKSFNLPMLMLGGGGYTIRNVARCWTYETAVALD |
| no binding | AD-HDAC3 (deacetylase domain of HDAC3, GAL AD fusion) (enzyme, UniProt O15379 3-316, looked up, not shown: large carriers, domain: deacetylase domain) KTVAYFYDPDVGNFHYGAGHPMKPHRLALTHSLVLHYGLYKKMIVFKPYQASQHDMCRFHSEDYIDFLQRVSPTNMQGFTKSLNAFNVGDDCPVFPGLFEFCSRYTGASLQGATQLNNKICDIAINWAGGLHHAKKFEASGFCYVNDIVIGILELLKYHPRVLYIDIDIHHGDGVQEAFYLTDRVMTVSFHKYGNYFFPGTGDMYEVGAESGRYYCLNVPLRDGIDDQSYKHLFQPVINQVVDFYQPTCIVLQCGADSLGCDRLGCFNLSIRGHGECVEYVKSFNIPLLVLGGGGYTVRNVARCWTYETSLLVE |
